{"source": "the Immune Epitope Database (IEDB)", "key": {"HLA-A*02:02 [1]": {"biological_target": "HLA-A*02:02", "experiment": "IEDB peptide-MHC binding, purified MHC/competitive/radioactivity; ≥ and ≤ were set here for values at or beyond the usual limits of such assays", "settings": "source organism: Human immunodeficiency virus type 1 (isolate YU2)"}, "HLA-A*02:03 [2]": {"biological_target": "HLA-A*02:03", "experiment": "IEDB peptide-MHC binding, purified MHC/competitive/radioactivity; ≥ and ≤ were set here for values at or beyond the usual limits of such assays"}, "HLA-A*02:06 [3]": {"biological_target": "HLA-A*02:06", "experiment": "IEDB peptide-MHC binding, purified MHC/competitive/radioactivity; ≥ and ≤ were set here for values at or beyond the usual limits of such assays"}, "HLA-A*68:02 [4]": {"biological_target": "HLA-A*68:02", "experiment": "IEDB peptide-MHC binding, purified MHC/competitive/radioactivity; ≥ and ≤ were set here for values at or beyond the usual limits of such assays", "settings": "source organism: Human immunodeficiency virus type 1 (isolate YU2)"}, "HLA-A*02:06 [5]": {"biological_target": "HLA-A*02:06", "experiment": "IEDB peptide-MHC binding, purified MHC/competitive/radioactivity; filed as Kd, often an IC50 or EC50 that approximates it; ≥ and ≤ were set here for values at or beyond the usual limits of such assays", "settings": "source organism: Human immunodeficiency virus type 1 (isolate YU2)"}, "HLA-A*02:02 [6]": {"biological_target": "HLA-A*02:02", "experiment": "IEDB peptide-MHC binding, purified MHC/competitive/radioactivity; filed as Kd, often an IC50 or EC50 that approximates it; ≥ and ≤ were set here for values at or beyond the usual limits of such assays"}, "HLA-A*68:02 [7]": {"biological_target": "HLA-A*68:02", "experiment": "IEDB peptide-MHC binding, purified MHC/competitive/radioactivity; filed as Kd, often an IC50 or EC50 that approximates it; ≥ and ≤ were set here for values at or beyond the usual limits of such assays"}, "HLA-A*02:03 [8]": {"biological_target": "HLA-A*02:03", "experiment": "IEDB peptide-MHC binding, purified MHC/competitive/radioactivity; filed as Kd, often an IC50 or EC50 that approximates it; ≥ and ≤ were set here for values at or beyond the usual limits of such assays", "settings": "source organism: Human immunodeficiency virus type 1 (isolate YU2)"}, "[9]": {"settings": "source organism: Human immunodeficiency virus type 1 (isolate YU2)"}, "[10]": {"settings": "source organism: Human immunodeficiency virus 1"}}, "note": "pIC50, pKd: −log10 of the molar value.", "data": [{"sequence": "AIIRILQQL", "values": [{"measurement": "pIC50", "setting": "HLA-A*02:02 [1]", "result": 7.65}, {"measurement": "pIC50", "setting": "HLA-A*02:03 [2]; [9]", "result": 7.38}, {"measurement": "pIC50", "setting": "HLA-A*02:06 [3]; [9]", "result": 7.41}, {"measurement": "pIC50", "setting": "HLA-A*68:02 [4]", "result": 6.26}]}, {"sequence": "ILKEPVHGV", "values": [{"measurement": "pKd", "setting": "HLA-A*02:06 [5]", "result": "≤ 4.43"}]}, {"sequence": "KAACWWAGI", "values": [{"measurement": "pIC50", "setting": "HLA-A*02:03 [2]; [9]", "result": 7.08}, {"measurement": "pIC50", "setting": "HLA-A*02:06 [3]; [9]", "result": 6.79}, {"measurement": "pKd", "setting": "HLA-A*02:02 [6]; [9]", "result": 5.97}]}, {"sequence": "KMIGGIGGFI", "values": [{"measurement": "pIC50", "setting": "HLA-A*02:02 [1]", "result": 7.26}, {"measurement": "pIC50", "setting": "HLA-A*02:03 [2]; [9]", "result": 8.32}, {"measurement": "pIC50", "setting": "HLA-A*02:06 [3]; [9]", "result": 6.11}, {"measurement": "pKd", "setting": "HLA-A*68:02 [7]; [9]", "result": 5.48}]}, {"sequence": "LLQLTVWGI", "values": [{"measurement": "pIC50", "setting": "HLA-A*02:02 [1]", "result": 6.67}, {"measurement": "pIC50", "setting": "HLA-A*02:03 [2]; [9]", "result": 7.36}, {"measurement": "pIC50", "setting": "HLA-A*02:06 [3]; [9]", "result": 7.61}, {"measurement": "pIC50", "setting": "HLA-A*68:02 [4]", "result": 6.19}]}, {"sequence": "LTFGWCFKL", "values": [{"measurement": "pIC50", "setting": "HLA-A*02:02 [1]", "result": 7.48}, {"measurement": "pIC50", "setting": "HLA-A*02:06 [3]; [9]", "result": 6.69}, {"measurement": "pIC50", "setting": "HLA-A*68:02 [4]", "result": 8.25}, {"measurement": "pKd", "setting": "HLA-A*02:03 [8]", "result": 5.34}]}, {"sequence": "LTFGWCFKLV", "values": [{"measurement": "pIC50", "setting": "HLA-A*02:02 [1]", "result": 7.31}, {"measurement": "pIC50", "setting": "HLA-A*02:03 [2]; [9]", "result": 6.73}, {"measurement": "pIC50", "setting": "HLA-A*68:02 [4]", "result": 8.21}]}, {"sequence": "LVGPTPVNI", "values": [{"measurement": "pIC50", "setting": "HLA-A*02:02 [1]", "result": 6.81}, {"measurement": "pIC50", "setting": "HLA-A*02:03 [2]; [9]", "result": 7.72}, {"measurement": "pIC50", "setting": "HLA-A*68:02 [4]", "result": 7.17}, {"measurement": "pKd", "setting": "HLA-A*02:06 [5]", "result": 5.55}]}, {"sequence": "MASDFNLPPV", "values": [{"measurement": "pIC50", "setting": "HLA-A*02:02 [1]", "result": 7.65}, {"measurement": "pIC50", "setting": "HLA-A*02:03 [2]; [9]", "result": 7.25}, {"measurement": "pIC50", "setting": "HLA-A*02:06 [3]; [9]", "result": 7.47}, {"measurement": "pIC50", "setting": "HLA-A*68:02 [4]", "result": 7.74}]}, {"sequence": "MTNNPPIPV", "values": [{"measurement": "pIC50", "setting": "HLA-A*02:03 [2]; [9]", "result": 7.48}, {"measurement": "pIC50", "setting": "HLA-A*68:02 [4]", "result": 7.92}, {"measurement": "pKd", "setting": "HLA-A*02:02 [6]; [9]", "result": 5.14}, {"measurement": "pKd", "setting": "HLA-A*02:06 [5]", "result": 5.79}]}, {"sequence": "RILQQLLFI", "values": [{"measurement": "pIC50", "setting": "HLA-A*02:03 [2]; [9]", "result": 6.90}, {"measurement": "pIC50", "setting": "HLA-A*02:06 [3]; [9]", "result": 7.43}, {"measurement": "pKd", "setting": "HLA-A*02:02 [6]; [9]", "result": 5.81}, {"measurement": "pKd", "setting": "HLA-A*68:02 [7]; [9]", "result": 5.74}]}, {"sequence": "SLLNATDIAV", "values": [{"measurement": "pIC50", "setting": "HLA-A*02:03 [2]; [10]", "result": 6.62}, {"measurement": "pIC50", "setting": "HLA-A*02:06 [3]; [10]", "result": 7.55}, {"measurement": "pKd", "setting": "HLA-A*02:02 [6]; [10]", "result": 5.89}, {"measurement": "pKd", "setting": "HLA-A*68:02 [7]; [10]", "result": 5.26}]}, {"sequence": "VLAEAMSQV", "values": [{"measurement": "pIC50", "setting": "HLA-A*02:02 [1]", "result": 7.08}, {"measurement": "pIC50", "setting": "HLA-A*02:03 [2]; [9]", "result": 7.82}, {"measurement": "pIC50", "setting": "HLA-A*02:06 [3]; [9]", "result": 6.94}]}]}
